The numbers were not newly measured in paper PMC12692374, which cites them from elsewhere.

In the series the target is HIV-1 capsid (Human immunodeficiency virus 1) (UniProt O93182).
Chain of HIV-1 capsid (Human immunodeficiency virus 1) (O93182 133-363): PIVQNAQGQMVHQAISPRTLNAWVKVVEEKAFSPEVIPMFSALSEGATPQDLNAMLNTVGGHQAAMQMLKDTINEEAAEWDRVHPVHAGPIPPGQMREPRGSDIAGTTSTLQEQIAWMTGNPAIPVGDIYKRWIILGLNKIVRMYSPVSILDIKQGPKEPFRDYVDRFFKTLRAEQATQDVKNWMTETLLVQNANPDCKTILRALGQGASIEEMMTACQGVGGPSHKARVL

Chain of NONO (Q15233 whole entry): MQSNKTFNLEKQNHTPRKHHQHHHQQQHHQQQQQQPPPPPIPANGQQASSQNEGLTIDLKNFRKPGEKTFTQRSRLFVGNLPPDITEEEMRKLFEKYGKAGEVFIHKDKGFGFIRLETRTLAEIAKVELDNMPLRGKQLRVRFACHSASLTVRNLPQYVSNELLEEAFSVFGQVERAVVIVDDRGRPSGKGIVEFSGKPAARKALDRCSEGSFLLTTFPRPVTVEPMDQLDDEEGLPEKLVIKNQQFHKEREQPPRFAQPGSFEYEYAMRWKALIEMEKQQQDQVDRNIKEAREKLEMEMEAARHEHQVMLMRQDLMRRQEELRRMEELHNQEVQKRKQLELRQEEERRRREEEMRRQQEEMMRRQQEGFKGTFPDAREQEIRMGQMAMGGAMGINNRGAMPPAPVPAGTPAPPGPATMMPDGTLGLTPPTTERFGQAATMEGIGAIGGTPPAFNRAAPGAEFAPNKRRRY

By Kd is commonly meant the concentration at which binding is half-saturated. Regarding NONO (from UniProt Q15233), the Kd is 9.15 µM.
